This note sets out measurements from publication PMC9307002, “Carboxyl Methyltransferase Catalysed Formation of Mono‐ and Dimethyl Esters under Aqueous Conditions: Application in Cascade Biocatalysis” (Angewandte Chemie (International Ed. in English), 2022).

Common to all, as to assay: methyltransferase kinetics
Holding throughout (format): biochemical, Aspergillus fumigatus
Common to all, as to details: methyl donor SAM

Substrate in data set [1]: COC(=O)c1ccc(C(=O)O)cc1
Substrate in data set [2]: COC(=O)c1ccc(C(=O)O)o1
Substrate in data set [3]: O=C(O)/C=C/C(=O)N[C@@H](Cc1ccc(O)cc1)C(=O)O
Substrate in data set [4]: O=C(O)c1ccc(C(=O)O)cc1
Substrate in data set [5]: O=C(O)c1ccc(C(=O)O)o1

B1: FtpM (Aspergillus fumigatus Af293) (protein)
chain: MTQSNGNAVSSASDPYRLNRNIAASTRLSLQHYIWKENMGYLLHPSIDVSRPDLAIADVGTGTAIWILDLLRQLPNAKFHGFDISSEQYPAPGFLPPNVSLSKLDILGEIPEEYREKFDVVHARLLVQVVNQAGSDPVPVIRNMMKLLKPGGYLQWEEPNDDASKRPIVKADPANSSENAEKLLQRLDARFRAATPASWSVALAETFKEQGLQNVVREEFSTDTYLLLLDQTNYLGLFGELISKLDGDLKEELTQLHANTVAEARKGLSWKVRRFAFLGQKP
notes: recombinant, C-terminal His-tag; dimer (modelled)
What is called Km is the substrate concentration at which the rate is half of its maximum. In general, kcat refers to the maximal rate divided by the concentration of active sites. Regarding B1, the Michaelis constant (Km) stood at 1510 µM in data set [1]; 1400 µM in data set [2]; 680 µM in data set [3]; 72 µM in data set [4]; 520 µM in data set [5]. The catalytic constant (kcat) is 8.17e-05 s⁻¹ in data set [1]; 8.3e-05 s⁻¹ in data set [2]; 0.00105 s⁻¹ in data set [3]; 0.0148 s⁻¹ in data set [4]; 0.00033 s⁻¹ in data set [5].
